Laboratory results from article PMC6791878, “Evaluation of integrin αvβ6 cystine knot PET tracers to detect cancer and idiopathic pulmonary fibrosis” (Nature Communications, 2019).
Several values for one entry are separate records, joined by “and”; a condition that tells them apart may be missing. Equal values may be shown once. Read-outs that look alike come from different tables or passages of the source.

How the values were obtained:
[1] = test system: pancreatic, cervical and lung cancer
Method: The administered dose was 55.5–96.2MBq (1.5–2.6 mCi). The scan (6 bed positions, 2 min bed^−1) covered an area that included the top of the skull to the middle of the femur. OSEM was applied for reconstruction. […] The CT scan (140 kV, 35 mA, pitch of 1:1, layer of 5 mm thickness; layer spacing of 3 mm, 512*512 matrix, field of view of 70 cm) also covered the top of the skull to the middle of the femur. […] Immediately upon completion of the first scan, the second whole-body static PET data was acquired. Sequentially, multiple whole-body static PET scans were acquired, one by one, from 0 to 75 min.
Upon co-registration of the PET and CT images, the CT images were used to determine regions of interest for the organs or tissues reported in the manuscript. These ROIs were applied to the PET images of the brain, pituitary gland, breast, lower and upper large intestine, small intestine, stomach, pancreas, heart wall, liver, lung, muscle, red marrow, bone, skin, and thyroid gland. For high uptake organs such as the kidneys, bladder and for the whole body, threshold-based segmentation of PET images were used to determine a close-fitting ROI around the entire organ or whole body. In order to determine accuracy, these PET-derived ROIs were compared to the CT overlay for a close match.

[2] = test system: integrin αvβ6-positive A431 xenografts; assay: Static small animal PET, integrin αvβ6-positive tumor model; type: in vivo, mouse; conditions: microPET 1 hr, individual mice, listed as Ro1-MG NODAGA Ga-68
[3] = test system: integrin αvβ6-positive A431 xenografts; assay: as above; type: in vivo, mouse
Source text: (§1) Eight planes were acquired in the coronal section.
(§2) Supplementary Figure 5. [18F]FP-R01-MG-F2 Static PET Imaging. (A) Representative PET images of nu/nu mice bearing in integrin αvβ6-positive A431 xenografts (left) and integrin αvβ6-negative 293 xenograft (right) models following injection of […] [18F]FP-R01-MG-F2. Location of tumor and kidneys are indicated by the letters T and K.

[4] = as above; type: in vivo, mouse; conditions: female, athymic nude (Nu/Nu), mouse, in vivo, iv, 100 uCi, total radioactivity, PET, 1 h p.i., average ± SD, n = 3
Source text: as §1, §2

[5] = 49 min p.i., one patient, Fig 4C
[6] = 61 min p.i., one patient, Fig 4C
[7] = microPET 1 hr, individual mice, listed as Ro1-MG NODAGA Ga-68

Question: Which results are given for CC[C@H](C)[C@@H]1NC(=O)[C@@H](NC(=O)CNC(=O)CCC(C(=O)O)N2CCN(CC(=O)O)CCN(CC(=O)O)CC2)CSSC[C@@H]2NC(=O)[C@H](C)NC(=O)CNC(=O)[C@@H]3CCCN3C(=O)[C@@H]3CSSC[C@@H](C(=O)NCC(N)=O)NC(=O)[C@H](Cc4ccc(O)cc4)NC(=O)CNC(=O)[C@H](CC(N)=O)NC(=O)CNC(=O)[C@H](CCCNC(=N)N)NC(=O)[C@H](CSSC[C@H](NC(=O)[C@H](CCCNC(=N)N)NC(=O)[C@H](Cc4ccccc4)NC(=O)[C@H](CC(C)C)NC(=O)[C@H](CC(C)C)NC(=O)[C@H]([C@@H](C)O)NC(=O)CNC(=O)[C@H](CC(C)C)NC(=O)[C@H](CC(=O)O)NC(=O)[C@H]([C@@H](C)O)NC(=O)[C@H](CCCNC(=N)N)NC(=O)CNC(=O)[C@H](CC(N)=O)NC(=O)[C@H](CC(C)C)NC1=O)C(=O)N[C@@H](CCCNC(=N)N)C(=O)N[C@@H](CCCNC(=N)N)C(=O)N[C@@H](CC(=O)O)C(=O)N[C@@H](CO)C(=O)N[C@@H](CC(=O)O)C(=O)N3)NC(=O)[C@H]([C@@H](C)CC)NC2=O (some centres unmarked) [[^68Ga]NODAGA-R01-MG, metal not drawn]?
Answer: ROI uptake Bn (osteogenic cells) [1, 5]: 0.4088; ROI uptake Br (brain) [1, 5]: 0.04004; ROI uptake Brs (breast) [1, 5]: 0.5978; ROI uptake HC (heart contents) [1, 5]: 0.5978; ROI uptake HW (heart wall) [1, 5]: 0.3526; ROI uptake LLI (lower large intestine) [1, 5]: 1.426; ROI uptake Ln (lung) [1, 5]: 0.3066; ROI uptake Lv (liver) [1, 5]: 0.6029; ROI uptake Ms (muscle) [1, 5]: 0.7154; ROI uptake Pn (pancreas) [1, 5]: 0.9657; ROI uptake Pt (pituitary gland) [1, 5]: 2.212; ROI uptake RM (red marrow) [1, 5]: 0.1942; ROI uptake SI (small intestine) [1, 5]: 6.546; ROI uptake Sk (skin) [1, 5]: 0.07665; ROI uptake Sp (spleen) [1, 5]: 0.373; ROI uptake St (stomach) [1, 5]: 2.34; ROI uptake TB (total body) [1, 5]: 0.6949; ROI uptake Tm (thymus) [1, 5]: 0.5876; ROI uptake Tr (thyroid) [1, 5]: 0.5416; ROI uptake ULI (upper large intestine) [1, 5]: 1.661; ROI uptake Bl (bladder) [1, 6]: 9.011; ROI uptake Bn (osteogenic cells) [1, 6]: 0.8028; ROI uptake Br (brain) [1, 6]: 0.04398; ROI uptake Brs (breast) [1, 6]: 0.7155; ROI uptake HC (heart contents) [1, 6]: 0.5817; ROI uptake HW (heart wall) [1, 6]: 0.3897; ROI uptake LLI (lower large intestine) [1, 6]: 1.338; ROI uptake Ln (lung) [1, 6]: 0.3258; ROI uptake Lv (liver) [1, 6]: 0.6399; ROI uptake Ms (muscle) [1, 6]: 0.9889; ROI uptake Pn (pancreas) [1, 6]: 1.129; ROI uptake Pt (pituitary gland) [1, 6]: 2.048; ROI uptake RM (red marrow) [1, 6]: 0.07562; ROI uptake SI (small intestine) [1, 6]: 6.597; ROI uptake Sk (skin) [1, 6]: 0.1047; ROI uptake Sp (spleen) [1, 6]: 0.4654; ROI uptake St (stomach) [1, 6]: 2.513; ROI uptake TB (total body) [1, 6]: 0.5643; ROI uptake Tm (thymus) [1, 6]: 0.5119; ROI uptake Tr (thyroid) [1, 6]: 0.4479; ROI uptake ULI (upper large intestine) [1, 6]: 1.478; Bl, PET uptake, Average ([1]; Average of patients, 29-60 min): 25.3728; Bn, PET uptake, Average ([1]; Average of patients, 29-60 min): 0.4809; Br, PET uptake, Average ([1]; Average of patients, 29-60 min): 0.09236; Brs, PET uptake, Average ([1]; Average of patients, 29-60 min): 0.4271; CA, PET uptake, Average ([1]; Average of patients, 29-60 min): 4.033; HC, PET uptake, Average ([1]; Average of patients, 29-60 min): 0.8404; HW, PET uptake, Average ([1]; Average of patients, 29-60 min): 0.6923; LLI, PET uptake, Average ([1]; Average of patients, 29-60 min): 1.574; Ln, PET uptake, Average ([1]; Average of patients, 29-60 min): 0.4315; Lv, PET uptake, Average ([1]; Average of patients, 29-60 min): 0.7253; Ms, PET uptake, Average ([1]; Average of patients, 29-60 min): 0.5597; Pn, PET uptake, Average ([1]; Average of patients, 29-60 min): 1.617; Pt, PET uptake, Average ([1]; Average of patients, 29-60 min): 3.247; RM, PET uptake, Average ([1]; Average of patients, 29-60 min): 0.2168; SI, PET uptake, Average ([1]; Average of patients, 29-60 min): 7.061; Sk, PET uptake, Average ([1]; Average of patients, 29-60 min): 0.1123; Sp, PET uptake, Average ([1]; Average of patients, 29-60 min): 0.4371; St, PET uptake, Average ([1]; Average of patients, 29-60 min): 8.975; TB, PET uptake, Average ([1]; Average of patients, 29-60 min): 0.841; Tm, PET uptake, Average ([1]; Average of patients, 29-60 min): 0.6358; Tr, PET uptake, Average ([1]; Average of patients, 29-60 min): 1.023; ULI, PET uptake, Average ([1]; Average of patients, 29-60 min): 1.719; adverse reactions ([1]; ~2 mCi i.v., ~1 h p.i., lasted about an hour, disappeared without treatment): One patient reported nausea and vertigo; Tumor avb6(+) ([2]; source data of Table 3): 3.142 and 2.463 and 2.614 and 2.906; Liver [2]: 0.7389 and 1.216 and 1.257 and 1.6013; Muscle ([3]; PET, 1 h p.i., average ± SD, n = 3): 0.6 ± 0.1 %ID g^−1; Kidney [3, 7]: 34.6175 and 26.042 and 24.5731 and 34.9763; Muscle [3, 7]: 0.5495 and 0.6119 and 0.4496 and 0.7461; tissue uptake at 1 h ([4]; αvβ6 (+), read-out: Tumor): 2.78 ± 0.3 %ID/g; tissue uptake at 1 h ([4]; read-out: Kidney): 30.1 ± 5.51 %ID/g; tissue uptake at 1 h ([4]; read-out: Liver): 1.2 ± 0.35 %ID/g; tissue uptake at 1 h ([4]; read-out: Muscle): 0.589 ± 0.124 %ID/g; tissue to tissue ratio at 1 h ([4]; read-out: T:M Ratio (tumor-to-muscle)): 4.86 ± 1.04
